# Assay results taken from US20040053349A1, “Direct selection of protein complexes relevant to physiological or diagnostic context of a biological specimen” (priority 2000, published 2004).
# B1: Ribonuclease A: enzyme preparation spiked into dialyzed serum sample (protein, UniProt P61823 27-150, looked up)
# Ribonuclease pancreatic: KETAAAKFERQHMDSSTSAASSSNYCNQMMKSRNLTKDRCKPVNTFVHESLADVQAVCSQKNVACKNGQTNCYQSYSTMSITDCRETGSSKYPNCAYKTTQANKHIIVACEGNPYVPVHFDASV
# Tested on: trypsin
# Assay: Trypsin treatment of enzyme-spiked dialyzed human serum with or without ligand solutions, then residual enzyme activity assay
# Assay type: biochemical
# Conditions: for Relative residual activity [percent of untreated], LSA: LSA (ATP, XMP, CMP, NADP, NADPH) added before treatment with trypsin; for Relative residual activity [percent of untreated], LSA + LSB: LSA and LSB both added before treatment with trypsin; for Relative residual activity [percent of untreated], LSB: LSB (glucose, L-aspartic acid, D,L-asparagine, creatine, D,L-glyceraldehyde-3-P) added before treatment with trypsin
# Experimental: 2. Ligand solutions (LS) are composed as follows:
# One) ATP, XMP, CMP, NADP and NADPH are included in ligand solution LSA; and
# Two) Glucose, L-aspartic acid, D,L-asparagine, creatine, D,L-glyceraidehyde-3-P are included in ligand solution LSB.
# 2. The serum is treated with trypsin in the absence and presence of LSA or LSB, or both. At the end of the treatment samples are assayed for enzyme activity. For details see Table 1.
Molecule,"Relative residual activity [percent of untreated], LSA","Relative residual activity [percent of untreated], LSA + LSB","Relative residual activity [percent of untreated], LSB"
Asparaginase,9% of untreated,90% of untreated,89% of untreated
B1,93% of untreated,93% of untreated,11% of untreated
